Results on one substance are retold here after US20240309052A1.

The target of experiment [1] is recombinant mouse TIGIT-Fc-his (771808; Biolegend) (mouse) (UniProt P86176). The experiment is described as follows: SPR (Biacore T200), single-cycle kinetics, mTIGIT-Fc-his captured by anti-His, 1:1 Langmuir fit.
In experiment [2] the target is recombinant mouse CD226-his (50232-M08H; SinoBiological) (mouse) (UniProt Q8K4F0). The experiment in a line: SPR (Biacore T200), single-cycle kinetics, mCD226-his captured by anti-His, 1:1 Langmuir fit.
UniProt Q8K4F0, sequence (Q8K4F0 19-254 limits assumed, stated change not applied): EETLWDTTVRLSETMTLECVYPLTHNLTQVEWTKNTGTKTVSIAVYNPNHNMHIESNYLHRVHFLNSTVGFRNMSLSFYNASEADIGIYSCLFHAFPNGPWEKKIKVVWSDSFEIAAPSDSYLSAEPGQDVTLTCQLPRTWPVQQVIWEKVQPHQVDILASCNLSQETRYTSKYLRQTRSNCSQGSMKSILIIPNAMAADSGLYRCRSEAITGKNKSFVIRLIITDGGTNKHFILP
The target of experiment [3] is recombinant mouse CD96-his (788806; Biolegend) (mouse) (UniProt Q3U0X8). The experiment in a line: SPR (Biacore T200), single-cycle kinetics, mCD96-his captured by anti-His, 1:1 Langmuir fit.
UniProt Q3U0X8, sequence (Q3U0X8 22-536 limits assumed): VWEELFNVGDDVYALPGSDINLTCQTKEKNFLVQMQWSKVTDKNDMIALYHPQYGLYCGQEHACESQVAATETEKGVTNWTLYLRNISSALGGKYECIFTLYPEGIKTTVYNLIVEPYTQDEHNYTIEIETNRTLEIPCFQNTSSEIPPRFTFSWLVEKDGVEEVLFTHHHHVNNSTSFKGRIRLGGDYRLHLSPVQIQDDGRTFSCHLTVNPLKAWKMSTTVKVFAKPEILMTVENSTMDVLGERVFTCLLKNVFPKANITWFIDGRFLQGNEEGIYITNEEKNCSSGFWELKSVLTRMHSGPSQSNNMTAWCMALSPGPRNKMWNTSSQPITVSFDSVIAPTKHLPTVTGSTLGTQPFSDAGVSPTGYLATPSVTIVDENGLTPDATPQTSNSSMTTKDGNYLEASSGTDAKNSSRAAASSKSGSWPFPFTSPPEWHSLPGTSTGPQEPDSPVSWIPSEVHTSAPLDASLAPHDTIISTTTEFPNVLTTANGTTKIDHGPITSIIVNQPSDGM

UniProt P86176, sequence (P86176 29-148 limits assumed): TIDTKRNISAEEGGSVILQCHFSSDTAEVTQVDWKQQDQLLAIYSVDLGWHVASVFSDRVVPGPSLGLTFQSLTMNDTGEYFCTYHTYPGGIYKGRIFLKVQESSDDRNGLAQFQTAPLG

Consider “PVR-Fc (786608; Biolegend), full-length mouse PVR ECD-Fc (Fc fusion)”, for which, in experiment [1], the Kd was found to be 2.26 nM, the koff worked out at 0.0646 s⁻¹ and the kon stood at 2.25e+07 M⁻¹ s⁻¹. For the same substance, the Kd in experiment [2] was 0.83 nM. Moreover, in experiment [3], the Kd was determined as 4.07 nM, the koff amounted to 0.00455 s⁻¹ and the kon was 1.17e+06 M⁻¹ s⁻¹.
